Reference: patent US20260176254A1, “INHIBITORS OF PROSTATE SPECIFIC MEMBRANE ANTIGEN AND USE THEREOF” (SHANGHAI SINOTAU BIOTECH. CO., LTD, priority 2023, published 2026)

Key:
[1] = target: T1, recombinant human PSMA (rhPSMA) (Homo sapiens, UniProt Q04609); experiment: Naaladase assay (fluorescence-based Naaladase activity inhibition); assay type: biochemical; conditions: rhPSMA 0.4 μg/mL, substrate N-Acetyl-Asp-Glu 40 μM, 37° C. one hour
T1 construct: purchased Sino Biological
Procedure: Naaladase activity inhibition was determined using a fluorescence-based assay. Briefly, the solution containing the substrate N-Acetyl-Asp-Glu (Sigma-Aldrich) at 40 μM and the compound at concentrations from 0.15 nM to 1000 nM was mixed at equal volume with recombinant human PSMA (rhPSMA, Sino Biological) at 0.4 μg/mL, in assay buffer (50 mM HEPES, 100 mM NaCl, pH 7.5). The enzymatic reaction was proceeded by incubation at 37° C. for one hour and then stopped by heating at 95° C. for 5 minutes. A solution of 15 mM ortho-phthaldialdehyde (Sigma-Aldrich) was added to all vials and incubated for 10 min at ambient temperature. The reaction solutions were loaded onto a 96-well flat clear bottom black microplates (Corning) and read at excitation and emission wavelengths of 330 and 450 nm, respectively, using a microplate reader (Tecan). The data were analyzed by a one-site total binding regression algorithm of GraphPad Prism (GraphPad Software).

[2] = Tissue biodistribution in 22Rv1 tumor mouse model; parameters: species or system mice; conditions: male, nude, in vivo, iv, total radioactivity
From the text: LnCAP and 22RV1 CDX xenograft tumor models were generated by inoculating 5×10^6 cells/site subcutaneously in male SCID or nude mice (Vital River), respectively. Animals were housed according to IACUC guidance and had accessed to food and water ad libitium. Animals were used for biodistribution study when the tumor dimensions reached around 0.2-0.3 cm^3. […] At each tome point, animals were sacrificed and tissues were collected, weighted, and subjected to radioactivity measurements using gamma counter. Radioactivity in the tissues was presented in % ID/g (percent of injected dose per gram).

[3] = Tissue biodistribution: Salivary Gland

T1 sequence (Q04609 whole entry): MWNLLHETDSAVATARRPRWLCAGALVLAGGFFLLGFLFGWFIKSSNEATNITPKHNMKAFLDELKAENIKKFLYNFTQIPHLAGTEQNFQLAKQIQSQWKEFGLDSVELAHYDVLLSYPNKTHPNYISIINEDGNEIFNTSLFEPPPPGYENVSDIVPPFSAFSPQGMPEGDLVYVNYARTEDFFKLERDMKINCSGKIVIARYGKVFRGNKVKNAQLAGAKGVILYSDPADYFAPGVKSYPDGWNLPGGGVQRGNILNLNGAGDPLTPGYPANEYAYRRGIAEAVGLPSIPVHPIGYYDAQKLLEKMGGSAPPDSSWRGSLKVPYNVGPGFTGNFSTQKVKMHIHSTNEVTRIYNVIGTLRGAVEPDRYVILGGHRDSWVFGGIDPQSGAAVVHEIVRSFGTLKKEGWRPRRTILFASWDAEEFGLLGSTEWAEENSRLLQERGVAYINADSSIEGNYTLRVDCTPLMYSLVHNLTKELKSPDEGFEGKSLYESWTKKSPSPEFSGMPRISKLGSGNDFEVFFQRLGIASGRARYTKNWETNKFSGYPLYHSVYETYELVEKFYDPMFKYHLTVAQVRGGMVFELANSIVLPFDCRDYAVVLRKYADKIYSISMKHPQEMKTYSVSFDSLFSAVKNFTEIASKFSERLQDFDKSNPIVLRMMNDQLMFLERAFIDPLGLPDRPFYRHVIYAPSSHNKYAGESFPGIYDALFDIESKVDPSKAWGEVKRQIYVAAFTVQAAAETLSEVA

In the case of `O=C(O)CN1CCN(CC(=O)O)CCN(CC(=O)NC23CCC(Nc4nnc(N[C@@H](Cc5c6ccccc6cc6ccccc56)C(=O)NCCCC[C@H](NC(=O)N[C@@H](CNC(=O)C(=O)O)C(=O)O)C(=O)O)s4)(CC2)CC3)CCN(CC(=O)O)CC1` [E26], the IC50 [1] is reported as 9.5 nM.
Work on `O=C(O)CC[C@H](NC(=O)N[C@@H](CCCCNC(=O)[C@H](Cc1ccc2ccccc2c1)Nc1c(NC23CCC(c4nnc(CN5CCN(CC(=O)O)CCN(CC(=O)O)CCN(CC(=O)O)CC5)o4)(CC2)CC3)c(=O)c1=O)C(=O)O)C(=O)O` [E28] yielded an IC50 [1] of 2.1 nM.
`O=C(O)CC[C@H](NC(=O)N[C@@H](CCCCNC(=O)[C@H](Cc1ccc2ccccc2c1)Nc1nc(O)nc(NC23CCC(NC(=O)CN4CCN(CC(=O)O)CCN(CC(=O)O)CCN(CC(=O)O)CC4)(CC2)CC3)n1)C(=O)O)C(=O)O` [E27] showed an IC50 [1] of 26.6 nM.
`O=C(O)CCC[C@H](NC(=O)N[C@@H](CCCCNC(=O)[C@H](Cc1c2ccccc2cc2ccccc12)Nc1c(N[C@H]2CC[C@H](c3nnc(CN4CCN(CC(=O)O)CCN(CC(=O)O)CCN(CC(=O)O)CC4)o3)CC2)c(=O)c1=O)C(=O)O)C(=O)O` [E11] showed an IC50 [1] of 10 nM.
For `O=C(O)CCC[C@H](NC(=O)N[C@@H](CCCCNC(=O)[C@H](Cc1c2ccccc2cc2ccccc12)Nc1c(NC23CCC(c4nnc(CN5CCN(CC(=O)O)CCN(CC(=O)O)CCN(CC(=O)O)CC5)o4)(CC2)CC3)c(=O)c1=O)C(=O)O)C(=O)O` [[^177Lu]Lu-E7, metal not drawn], the tissue uptake dose at 2 h [2] was 5.17 ± 0.12 %ID, the tissue uptake dose at 6 h [2] was 1.71 ± 0.03 %ID and the tissue uptake dose at 24 h [2] was 1.36 ± 0.04 %ID. It also gave a tissue uptake dose at 72 h [2] of 1.29 ± 0.06 %ID, a tissue uptake dose at 168 h [2] of 0.23 ± 0.02 %ID and a tissue uptake at 2 h ([2]; Tissue biodistribution: Blood) of 0.23 ± 0.05 %ID/g. For the same molecule, the tissue uptake at 6 h ([2]; Tissue biodistribution: Blood) was 0.04 %ID/g, the tissue uptake at 24 h ([2]; Tissue biodistribution: Blood) was 0.02 %ID/g and the tissue uptake at 72 h ([2]; Tissue biodistribution: Blood) was 0.02 %ID/g. The tissue uptake at 168 h ([2]; Tissue biodistribution: Blood) was 0.02 ± 0.01 %ID/g, the tissue uptake at 2 h ([2]; Tissue biodistribution: Bone) was 0.3 ± 0.02 %ID/g and the tissue uptake at 6 h ([2]; Tissue biodistribution: Bone) was 0.28 ± 0.05 %ID/g. For the same molecule, the tissue uptake at 24 h ([2]; Tissue biodistribution: Bone) was 0.26 ± 0.03 %ID/g, the tissue uptake at 72 h ([2]; Tissue biodistribution: Bone) was 0.26 ± 0.06 %ID/g and the tissue uptake at 168 h ([2]; Tissue biodistribution: Bone) was 0.29 ± 0.1 %ID/g. It also gave a tissue uptake at 2 h ([2]; Tissue biodistribution: Heart) of 0.15 ± 0.02 %ID/g, a tissue uptake at 6 h ([2]; Tissue biodistribution: Heart) of 0.06 ± 0.01 %ID/g and a tissue uptake at 24 h ([2]; Tissue biodistribution: Heart) of 0.05 %ID/g. It also gave a tissue uptake at 72 h ([2]; Tissue biodistribution: Heart) of 0.05 ± 0.01 %ID/g, a tissue uptake at 168 h ([2]; Tissue biodistribution: Heart) of 0.07 ± 0.01 %ID/g and a tissue uptake at 2 h ([2]; Tissue biodistribution: Kidney) of 15.2 ± 5.3 %ID/g. The tissue uptake at 6 h ([2]; Tissue biodistribution: Kidney) was 8.27 ± 2.15 %ID/g, the tissue uptake at 24 h ([2]; Tissue biodistribution: Kidney) was 6.73 ± 0.66 %ID/g and the tissue uptake at 72 h ([2]; Tissue biodistribution: Kidney) was 2.88 ± 1.02 %ID/g. The tissue uptake at 168 h ([2]; Tissue biodistribution: Kidney) was 0.95 ± 0.16 %ID/g, the tissue uptake at 2 h ([2]; Tissue biodistribution: Liver) was 0.18 ± 0.02 %ID/g and the tissue uptake at 6 h ([2]; Tissue biodistribution: Liver) was 0.11 ± 0.01 %ID/g. For the same molecule, the tissue uptake at 24 h ([2]; Tissue biodistribution: Liver) was 0.11 ± 0.01 %ID/g, the tissue uptake at 72 h ([2]; Tissue biodistribution: Liver) was 0.12 ± 0.02 %ID/g and the tissue uptake at 168 h ([2]; Tissue biodistribution: Liver) was 0.11 ± 0.02 %ID/g. The tissue uptake at 2 h ([2]; Tissue biodistribution: Lung) was 0.41 ± 0.08 %ID/g, the tissue uptake at 6 h ([2]; Tissue biodistribution: Lung) was 0.12 ± 0.02 %ID/g and the tissue uptake at 24 h ([2]; Tissue biodistribution: Lung) was 0.1 %ID/g. The tissue uptake at 72 h ([2]; Tissue biodistribution: Lung) was 0.07 ± 0.01 %ID/g, the tissue uptake at 168 h ([2]; Tissue biodistribution: Lung) was 0.06 ± 0.01 %ID/g and the tissue uptake at 2 h ([2]; Tissue biodistribution: Muscle) was 0.1 ± 0.02 %ID/g. It also gave a tissue uptake at 6 h ([2]; Tissue biodistribution: Muscle) of 0.04 ± 0.02 %ID/g, a tissue uptake at 24 h ([2]; Tissue biodistribution: Muscle) of 0.02 %ID/g and a tissue uptake at 72 h ([2]; Tissue biodistribution: Muscle) of 0.02 %ID/g. The tissue uptake at 168 h ([2]; Tissue biodistribution: Muscle) was 0.02 %ID/g, the tissue uptake at 2 h [2, 3] was 0.16 ± 0.01 %ID/g and the tissue uptake at 6 h [2, 3] was 0.07 ± 0.01 %ID/g. It also gave a tissue uptake at 24 h [2, 3] of 0.08 %ID/g, a tissue uptake at 72 h [2, 3] of 0.06 ± 0.01 %ID/g and a tissue uptake at 168 h [2, 3] of 0.06 ± 0.02 %ID/g. For the same molecule, the tissue uptake at 2 h ([2]; Tissue biodistribution: Spleen) was 0.29 ± 0.03 %ID/g, the tissue uptake at 6 h ([2]; Tissue biodistribution: Spleen) was 0.12 ± 0.03 %ID/g and the tissue uptake at 24 h ([2]; Tissue biodistribution: Spleen) was 0.13 %ID/g. For the same molecule, the tissue uptake at 72 h ([2]; Tissue biodistribution: Spleen) was 0.12 ± 0.01 %ID/g, the tissue uptake at 168 h ([2]; Tissue biodistribution: Spleen) was 0.15 ± 0.02 %ID/g and the tissue uptake at 2 h ([2]; Tissue biodistribution: Tumor) was 15.6 ± 4.67 %ID/g. For the same molecule, the tissue uptake at 6 h ([2]; Tissue biodistribution: Tumor) was 15.6 ± 2.01 %ID/g, the tissue uptake at 24 h ([2]; Tissue biodistribution: Tumor) was 17.9 ± 0.87 %ID/g and the tissue uptake at 72 h ([2]; Tissue biodistribution: Tumor) was 12.1 ± 1.94 %ID/g. For the same molecule, the tissue uptake at 168 h ([2]; Tissue biodistribution: Tumor) was 4.04 ± 0.66 %ID/g, the tissue to tissue ratio at 2 h ([2]; Tumor/Blood) was 70.2 ± 30 and the tissue to tissue ratio at 6 h ([2]; Tumor/Blood) was 425 ± 28. It also gave a tissue to tissue ratio at 24 h ([2]; Tumor/Blood) of 848 ± 107, a tissue to tissue ratio at 72 h ([2]; Tumor/Blood) of 737 ± 174 and a tissue to tissue ratio at 168 h ([2]; Tumor/Blood) of 345 ± 220. For the same molecule, the tissue to tissue ratio at 2 h ([2]; Tumor/Bone) was 52.9 ± 18.6, the tissue to tissue ratio at 6 h ([2]; Tumor/Bone) was 57.4 ± 17.9 and the tissue to tissue ratio at 24 h ([2]; Tumor/Bone) was 70 ± 5.18. For the same molecule, the tissue to tissue ratio at 72 h ([2]; Tumor/Bone) was 47.8 ± 16.4, the tissue to tissue ratio at 168 h ([2]; Tumor/Bone) was 15.6 ± 6.16 and the tissue to tissue ratio at 2 h ([2]; Tumor/Kidney) was 1.05 ± 0.32. The tissue to tissue ratio at 6 h ([2]; Tumor/Kidney) was 1.99 ± 0.69, the tissue to tissue ratio at 24 h ([2]; Tumor/Kidney) was 2.67 ± 0.15 and the tissue to tissue ratio at 72 h ([2]; Tumor/Kidney) was 4.48 ± 1.26. For the same molecule, the tissue to tissue ratio at 168 h ([2]; Tumor/Kidney) was 4.23 ± 0.07.
